Experimental data reported in patent publication US20250207119A1 (VERRA THERAPEUTICS, published 2025).

T1: Human ADAM10 from R & D Systems (human, UniProt O14672 214-672)
T1 sequence (looked up): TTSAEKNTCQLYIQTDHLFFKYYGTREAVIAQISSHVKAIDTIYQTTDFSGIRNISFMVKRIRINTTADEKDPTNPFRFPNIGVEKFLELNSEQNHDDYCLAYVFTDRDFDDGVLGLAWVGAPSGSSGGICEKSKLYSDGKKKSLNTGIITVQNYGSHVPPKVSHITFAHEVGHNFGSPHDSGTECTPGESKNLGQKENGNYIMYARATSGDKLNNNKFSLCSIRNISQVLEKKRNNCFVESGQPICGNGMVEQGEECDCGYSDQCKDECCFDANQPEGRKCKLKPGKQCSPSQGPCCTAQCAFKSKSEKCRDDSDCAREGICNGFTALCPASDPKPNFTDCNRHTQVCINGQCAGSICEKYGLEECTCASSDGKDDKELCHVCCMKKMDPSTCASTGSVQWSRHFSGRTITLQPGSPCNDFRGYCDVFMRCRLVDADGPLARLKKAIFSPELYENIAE

T2: MMP 2 (UniProt P08253 30-660, limits assumed)
T2 sequence (looked up): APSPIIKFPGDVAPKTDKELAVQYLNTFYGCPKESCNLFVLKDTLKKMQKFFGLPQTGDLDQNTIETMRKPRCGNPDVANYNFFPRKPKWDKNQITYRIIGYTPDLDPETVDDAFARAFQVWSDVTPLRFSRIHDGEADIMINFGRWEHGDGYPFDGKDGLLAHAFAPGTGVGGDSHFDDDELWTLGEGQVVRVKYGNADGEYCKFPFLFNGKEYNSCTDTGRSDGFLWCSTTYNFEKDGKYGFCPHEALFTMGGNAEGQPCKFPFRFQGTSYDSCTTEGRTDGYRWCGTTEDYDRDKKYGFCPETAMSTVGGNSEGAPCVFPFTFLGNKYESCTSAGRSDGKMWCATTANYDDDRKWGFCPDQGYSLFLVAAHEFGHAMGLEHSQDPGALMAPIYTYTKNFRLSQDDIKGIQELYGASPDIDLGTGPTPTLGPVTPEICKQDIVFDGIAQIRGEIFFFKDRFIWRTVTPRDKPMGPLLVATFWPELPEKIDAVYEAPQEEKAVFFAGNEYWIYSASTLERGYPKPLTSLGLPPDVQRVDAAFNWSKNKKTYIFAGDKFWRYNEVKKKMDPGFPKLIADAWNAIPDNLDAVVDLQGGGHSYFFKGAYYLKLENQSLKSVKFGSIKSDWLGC


Columns and labels:
Assay in all cases: cell-based or functional assay
[1] = molecular target: T1, Human ADAM10 from R & D Systems
[2] = molecular target: Meprin from R & D Systems
MMP 12 = MMP 12 (UniProt P39900 17-470, limits assumed)
MMP 3 = MMP 3 (UniProt P08254 18-477, limits assumed)
MMP 14 = MMP 14 (UniProt P50281 21-538)
MMP 2 = molecular target: T2, MMP 2
MMP 9 = MMP 9 (UniProt P14780 20-707, limits assumed)
Chain of MMP 9 (P14780 20-707 limits assumed): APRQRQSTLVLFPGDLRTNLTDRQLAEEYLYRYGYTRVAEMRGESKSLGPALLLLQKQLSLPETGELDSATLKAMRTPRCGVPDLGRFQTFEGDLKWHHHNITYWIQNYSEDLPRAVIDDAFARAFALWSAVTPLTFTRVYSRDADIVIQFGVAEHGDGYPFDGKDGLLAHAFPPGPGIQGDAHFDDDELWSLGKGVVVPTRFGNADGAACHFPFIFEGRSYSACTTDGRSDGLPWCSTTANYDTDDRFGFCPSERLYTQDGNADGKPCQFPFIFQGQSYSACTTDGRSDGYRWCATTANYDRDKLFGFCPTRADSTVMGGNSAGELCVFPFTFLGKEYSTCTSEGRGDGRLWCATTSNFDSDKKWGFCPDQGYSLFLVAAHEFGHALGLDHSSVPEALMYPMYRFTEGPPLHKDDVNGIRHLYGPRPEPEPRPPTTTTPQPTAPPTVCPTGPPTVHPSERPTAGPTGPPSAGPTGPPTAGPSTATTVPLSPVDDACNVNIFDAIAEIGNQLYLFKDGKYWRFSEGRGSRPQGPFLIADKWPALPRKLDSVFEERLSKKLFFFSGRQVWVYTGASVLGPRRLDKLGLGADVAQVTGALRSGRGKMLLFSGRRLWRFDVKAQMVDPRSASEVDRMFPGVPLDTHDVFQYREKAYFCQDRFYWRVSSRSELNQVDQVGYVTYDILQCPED

Chain of MMP 12 (P39900 17-470 limits assumed): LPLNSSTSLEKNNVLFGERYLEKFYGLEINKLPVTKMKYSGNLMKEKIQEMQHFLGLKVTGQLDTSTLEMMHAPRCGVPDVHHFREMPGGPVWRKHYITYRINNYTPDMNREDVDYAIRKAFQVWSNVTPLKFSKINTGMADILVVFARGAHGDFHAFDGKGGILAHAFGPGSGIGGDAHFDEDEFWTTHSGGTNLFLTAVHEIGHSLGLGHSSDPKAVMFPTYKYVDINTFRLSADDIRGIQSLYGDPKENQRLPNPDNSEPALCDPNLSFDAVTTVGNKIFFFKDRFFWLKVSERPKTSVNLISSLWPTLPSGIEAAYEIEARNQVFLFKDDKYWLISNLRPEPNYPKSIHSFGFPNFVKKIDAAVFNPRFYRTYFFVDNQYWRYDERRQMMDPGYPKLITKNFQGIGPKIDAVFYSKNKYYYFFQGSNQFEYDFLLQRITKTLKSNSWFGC
Chain of MMP 3 (P08254 18-477 limits assumed): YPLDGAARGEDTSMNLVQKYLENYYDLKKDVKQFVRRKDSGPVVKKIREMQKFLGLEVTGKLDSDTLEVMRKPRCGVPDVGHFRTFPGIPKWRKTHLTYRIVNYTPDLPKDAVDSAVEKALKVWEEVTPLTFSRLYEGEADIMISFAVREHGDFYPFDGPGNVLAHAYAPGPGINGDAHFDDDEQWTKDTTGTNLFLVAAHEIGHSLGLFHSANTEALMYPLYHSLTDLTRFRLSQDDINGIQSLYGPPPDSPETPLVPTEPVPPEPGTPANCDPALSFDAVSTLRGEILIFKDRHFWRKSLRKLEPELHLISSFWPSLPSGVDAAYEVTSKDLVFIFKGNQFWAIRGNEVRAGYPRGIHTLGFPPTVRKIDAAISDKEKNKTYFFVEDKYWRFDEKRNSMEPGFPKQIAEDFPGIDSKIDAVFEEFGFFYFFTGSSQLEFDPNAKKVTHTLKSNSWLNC

Row | Binder | IC50 (nM), inhibition of ADAM10 cleavage of the fluorescent substrate PEPDAB064 [1] [nM] | IC50 (nM), inhibition of meprin cleavage of the fluorescent substrate PEPDAB022 [2] [nM] | further results
1 | SEQ ID NO: 64 (SEQ ID NO: 2 with R29K; R55K; C151S) (peptide) NPLNKYIRHYEGLSYNVDSLHQKHQRAKKAVSHEDQFLLLDFHAHGRQFNLRMKKDTSLFSDEFKVETSNKVLDYDTSHIYTGHIYGEEGSFSHGSVIDGRFEGFIKTRGGTFYIEPAERYIKDRILPFHSVIYHEDDINYPHKYGPQGGSADHSVFERMRKYQMTGVEEGARAHPEKHAASSGPELLRK | 83 | 682 | 
2 | SEQ ID NO: 67 (SEQ ID NO: 1/SEQ ID NO: 2 hybrid; R26A; R52A; C151S) (peptide) NPLNKYIRHYEGLSYNVDSLHQKHQAAKRAVSHEDQFLRLDFHAHGRHFNLAMKRDTSLFSDEFKVETSNKVLDYDTSHIYTGHIYGEEGSFSHGSVIDGRFEGFIQTRGGTFYVEPAERYIKDRTLPFHSVIYHEDDINYPHKYGPQGGSADHSVFERMRKYQMTGVEEGARAHPEKHAASSGPELLRK | 147 |  | 
3 | N-term PEG-SEQ ID NO: 70 (R29K; R55K; C151S; E177A) (10 kDa maleimide PEG on a cysteine at the N-terminus ('N-term PEG')) CGSNPLNKYIRHYEGLSYNVDSLHQKHQRAKKAVSHEDQFLRLDFHAHGRHFNLRMKKDTSLFSDEFKVETSNKVLDYDTSHIYTGHIYGEEGSFSHGSVIDGRFEGFIQTRGGTFYVEPAERYIKDRTLPFHSVIYHEDDINYPHKYGPQGGSADHSVFERMRKYQMTGVEEVTQIPQAEHAANGPELLRK | 52 |  | IC50, inhibition of meprin cleavage of the fluorescent substrate PEPDAB022 [2]: ~7000 nM
4 | SEQ ID NO: 65 (R26A; R52A; C151S) (peptide) NPLNKYIRHYEGLSYNVDSLHQKHQAAKRAVSHEDQFLRLDFHAHGRHFNLAMKRDTSLFSDEFKVETSNKVLDYDTSHIYTGHIYGEEGSFSHGSVIDGRFEGFIQTRGGTFYVEPAERYIKDRTLPFHSVIYHEDDINYPHKYGPQGGSADHSVFERMRKYQMTGVEEVTQIPQAEHAANGPELLRK | 49 | 289 | 
5 | SEQ ID NO: 63 (R29K; R55K; C151S; E177A) (peptide) NPLNKYIRHYEGLSYNVDSLHQKHQRAKKAVSHEDQFLRLDFHAHGRHFNLRMKKDTSLFSDEFKVETSNKVLDYDTSHIYTGHIYGEEGSFSHGSVIDGRFEGFIQTRGGTFYVEPAERYIKDRTLPFHSVIYHEDDINYPHKYGPQGGSADHSVFERMRKYQMTGVEEVTQIPQAEHAANGPELLRK | 35 | 542 | 
6 | SEQ ID NO: 6 (mut2; K28A; K54A; C151S) (peptide) NPLNKYIRHYEGLSYNVDSLHQKHQRAARAVSHEDQFLRLDFHAHGRHFNLRMARDTSLFSDEFKVETSNKVLDYDTSHIYTGHIYGEEGSFSHGSVIDGRFEGFIQTRGGTFYVEPAERYIKDRTLPFHSVIYHEDDINYPHKYGPQGGSADHSVFERMRKYQMTGVEEVTQIPQEEHAANGPELLRK | 106 |  | 
7 | SEQ ID NO: 5 (mut 1; K28A; K54A) (peptide) NPLNKYIRHYEGLSYNVDSLHQKHQRAARAVSHEDQFLRLDFHAHGRHFNLRMARDTSLFSDEFKVETSNKVLDYDTSHIYTGHIYGEEGSFSHGSVIDGRFEGFIQTRGGTFYVEPAERYIKDRTLPFHSVIYHEDDINYPHKYGPQGGCADHSVFERMRKYQMTGVEEVTQIPQEEHAANGPELLRK | 104 |  | 
8 | SEQ ID NO: 66 (SEQ ID NO: 1/SEQ ID NO: 2 hybrid; R26A; R55A; C151S; E177A) (peptide) NPLNKYIRHYEGLSYNVDSLHQKHQAAKRAVSHEDQFLLLDFHAHGRQFNLRMKADTSLFSDEFKVETSNKVPDYDTSHIYTGHIYGEEGSFSHGSVIDGRFEGFIKTRGGTFYIEPAERYIKDRILPFHSVIYHEDDINYPHKYGPQGGSADHSVFERMRKYQMTGVEEVTQIPQAEHAANGPELLRK | 234 |  | 
9 | SEQ ID NO: 34 (R29A; C151S; E177A) (peptide) NPLNKYIRHYEGLSYNVDSLHQKHQRAKAAVSHEDQFLRLDFHAHGRHFNLRMKRDTSLFSDEFKVETSNKVLDYDTSHIYTGHIYGEEGSFSHGSVIDGRFEGFIQTRGGTFYVEPAERYIKDRTLPFHSVIYHEDDINYPHKYGPQGGSADHSVFERMRKYQMTGVEEVTQIPQAEHAANGPELLRK | 95 | 289 | 
10 | SEQ ID NO: 68 (R26A; R55A; C151S) (peptide) NPLNKYIRHYEGLSYNVDSLHQKHQAAKRAVSHEDQFLRLDFHAHGRHFNLRMKADTSLFSDEFKVETSNKVLDYDTSHIYTGHIYGEEGSFSHGSVIDGRFEGFIQTRGGTFYVEPAERYIKDRTLPFHSVIYHEDDINYPHKYGPQGGSADHSVFERMRKYQMTGVEEVTQIPQAEHAANGPELLRK | 130 |  | 
11 | SEQ ID NO: 9 (mut3; K28A; K54A; E88A; E177A) (peptide) NPLNKYIRHYEGLSYNVDSLHQKHQRAARAVSHEDQFLRLDFHAHGRHFNLRMARDTSLFSDEFKVETSNKVLDYDTSHIYTGHIYGAEGSFSHGSVIDGRFEGFIQTRGGTFYVEPAERYIKDRTLPFHSVIYHEDDINYPHKYGPQGGCADHSVFERMRKYQMTGVEEVTQIPQAEHAANGPELLRK | 142 |  | 
12 | C-term PEG-SEQ ID NO: 69 (R29K; R55K; E177A) (10 kDa maleimide PEG on a cysteine; printed as 'C-term PEG' in Table 5 (the listed changes keep Cys151, and paragraph 162 speaks of a cysteine at C151, or the N- or C-terminus, for SEQ ID NOs: 69-71)) NPLNKYIRHYEGLSYNVDSLHQKHQRAKKAVSHEDQFLRLDFHAHGRHFNLRMKKDTSLFSDEFKVETSNKVLDYDTSHIYTGHIYGEEGSFSHGSVIDGRFEGFIQTRGGTFYVEPAERYIKDRTLPFHSVIYHEDDINYPHKYGPQGGCADHSVFERMRKYQMTGVEEVTQIPQAEHAANGPELLRK | 71 |  | IC50, inhibition of meprin cleavage of the fluorescent substrate PEPDAB022 [2]: ~5000 nM
13 | Cys151-pegylated SEQ ID NO: 5 (K28A; K54A) (10 kDa maleimide PEG on Cys151) NPLNKYIRHYEGLSYNVDSLHQKHQRAARAVSHEDQFLRLDFHAHGRHFNLRMARDTSLFSDEFKVETSNKVLDYDTSHIYTGHIYGEEGSFSHGSVIDGRFEGFIQTRGGTFYVEPAERYIKDRTLPFHSVIYHEDDINYPHKYGPQGGCADHSVFERMRKYQMTGVEEVTQIPQEEHAANGPELLRK | 83 |  | 
14 | SEQ ID NO: 62 (R29A; R55A; C151S; E177A) (peptide) NPLNKYIRHYEGLSYNVDSLHQKHQRAKAAVSHEDQFLRLDFHAHGRHFNLRMKADTSLFSDEFKVETSNKVLDYDTSHIYTGHIYGEEGSFSHGSVIDGRFEGFIQTRGGTFYVEPAERYIKDRTLPFHSVIYHEDDINYPHKYGPQGGSADHSVFERMRKYQMTGVEEVTQIPQAEHAANGPELLRK | 110 | 817 | percent inhibition of MMP activity (PEPDAB008 substrate) (MMP 12): 0 % at 8 µM; percent inhibition of MMP activity (PEPDAB008 substrate) (MMP 3): 0 % at 8 µM; percent inhibition of MMP activity (PEPDAB008 substrate) (MMP 14): 0 % at 8 µM; percent inhibition of MMP activity (PEPDAB008 substrate) (MMP 2): 0 % at 8 µM; percent inhibition of MMP activity (PEPDAB008 substrate) (MMP 9): 0 % at 8 µM
15 | C-term PEG-SEQ ID NO: 71 (R29K; R55K; C151S; E177A) (10 kDa maleimide PEG on a cysteine at the C-terminus ('C-term PEG')) NPLNKYIRHYEGLSYNVDSLHQKHQRAKKAVSHEDQFLRLDFHAHGRHFNLRMKKDTSLFSDEFKVETSNKVLDYDTSHIYTGHIYGEEGSFSHGSVIDGRFEGFIQTRGGTFYVEPAERYIKDRTLPFHSVIYHEDDINYPHKYGPQGGSADHSVFERMRKYQMTGVEEVTQIPQAEHAANGPELLRKGSGSC | 19 |  | IC50, inhibition of meprin cleavage of the fluorescent substrate PEPDAB022 [2]: ~4000 nM
